Reference: patent publication US20240002497A1 (Merck Sharp & Dohme, published 2024)

B1: F0103PMP495F09 (bispecific antibody)
chain: EVQLVESGGGLVQPGGSLRLSCAASGSIFNINSMAWYRRAPGKQRELVASSTNGGSTNYADSVKGRFTISRDNAKRVYLQMNSLTPEDTAVYYCRALLQPSIYDISRTYWGQGTLVTVSSGGGGSGGGGSGGGGSGGGGSGGGGSGGGGSGGGGSGGGGSGGGGSGGGGSEVQLVESGGGLVQAGSSLSLSCAASGRALSTYAMGWFRQAPGKEREFVARISRSGITTYYTDSVKGRFTISRDRAKDTVYLQMNSLKPEDTAIYLCAADASTNPAGYYLRNRYDYWGQGTLVTVSSAAADYKDHDGDYKDHDIDYKDDDDKGAAHHHHHHKAAGGGGG
notes: crude periplasmic extract; also called F103275B05(N93R)-50GS-F0103495F09 bivalent ISVD
B2: F0103464B09 (parental)-FLAG-HIS6 (VHH)
VHH: EVQLVESGGGLVQPGGSLRLSCATTSRAFIRDVFTGWYRRVPGKERELVARIYNGGNTNYADFAKGRFSISRDNAKKMVTLRMSNLKPEDTGVYYCLFSGTINTGREYRSGDYWGQGTLVTVSS
notes: also called F103464B09
B3: F0103PMP505D08 (bispecific antibody)
chain: EVQLVESGGGLVQPGGSLRLSCAASGSIFNINSMAWYRRAPGKQRELVASSTNGGSTNYADSVKGRFTISRDNAKRVYLQMNSLTPEDTAVYYCRALLQPSIYDISRTYWGQGTLVTVSSGGGGSGGGGSGGGGSGGGGSGGGGSGGGGSGGGGSGGGGSGGGGSGGGGSEVQLVESGGGLVQAGGSLRLSCVTSGRTSDLSTMNWFRQAPGKEREFVARITRRGSTYYAESVKERFIISRDNAKNTVYLQMNSLKPEDTANYYCTAASEMGYHYRGQGTQVTVSSAAADYKDHDGDYKDHDIDYKDDDDKGAAHHHHHHKAAGGGGG
notes: crude periplasmic extract; also called F103275B05(N93R)-50GS-F0103505D08 bivalent ISVD
B4: F0103PMP500E03 (bispecific antibody)
chain: EVQLVESGGGLVQPGGSLRLSCAASGSIFNINSMAWYRRAPGKQRELVASSTNGGSTNYADSVKGRFTISRDNAKRVYLQMNSLTPEDTAVYYCRALLQPSIYDISRTYWGQGTLVTVSSGGGGSGGGGSGGGGSGGGGSGGGGSGGGGSGGGGSGGGGSGGGGSGGGGSEVQLVESGGGLVQAGGSLRLSCAASGRTFSRYQMGWFRQAPGKEREFVAYISWSGSTRYVDSVKGRFTISRDNAKNTVYLQMNSLKPEDTAVYHCAAGTAGIISSRPETYDSWGQGTQVTVSSAAADYKDHDGDYKDHDIDYKDDDDKGAAHHHHHHKAA
notes: crude periplasmic extract; also called F103275B05(N93R)-50GS-F0103500E03 bivalent ISVD
B5: F0103387G04 (parental)-FLAG-HIS6 (VHH)
VHH: EVQLVESGGGLAQPGGSLRLSCAASGPVFNINKMAWYRRAPGKQRELVASVTPTGSISYTDSVKGRFTISRDGSKRWSLQMNSLTPEDTAVYYCNALLQPDSYSNTRTYWGQGTLVTVSS
notes: also called F01033387G04

Key:
[1] = molecular target: T1, huNav1.7α + β1-β2-β3 (human, UniProt Q15858 1-1988; A5A6L6 19-218; O60939 30-215; Q2KI11 23-215); assay: binding FACS, CHO Flp-In, periplasmic extract
T1 construct: also called huNav1.7-beta1-beta2-beta3; huNav1.7-β1-β2-β3

[2] = molecular target: T2, huNav1.5-β1-β2-β3 (human); assay: binding FACS, CHO Flp-In, periplasmic extract
T2 construct: Whole entry; CHO Flp-In or HEK Flp-In cells; also called huNav1.5-beta1-beta2-beta3

[3] = molecular target: T3, rhNav1.7α + β1-β2-β3 (rhesus monkey); assay: FACS, CHO Flp-In, competitor 1 µM F010300703
T3 construct: also called rhNav1.7-beta1-beta2-beta3; rhNav1.7-β1-β2-β3

[4] = molecular target: T2, huNav1.5-β1-β2-β3; assay: FACS, CHO Flp-In, competitor 1 µM F010300703
[5] = molecular target: T1, huNav1.7α + β1-β2-β3; assay: FACS, CHO Flp-In, competitor 1 µM IRR00092
[6] = molecular target: T3, rhNav1.7α + β1-β2-β3; assay: FACS, CHO Flp-In, competitor 1 µM IRR00092
[7] = molecular target: T2, huNav1.5-β1-β2-β3; assay: FACS, CHO Flp-In, competitor 1 µM IRR00092
[8] = molecular target: T4, huNav157chim14-β1-β2-β3 (human); assay: binding FACS, HEK Flp-In
T4 construct: Whole entry; HEK Flp-In cells; also called huNav157 chimera 14-beta1-beta2-beta3

[9] = molecular target: T5, huNav157chim14 (human); assay: binding FACS, HEK Flp-In
T5 construct: HEK Flp-In cells; also called huNav157 chimera 14

[10] = molecular target: T2, huNav1.5-β1-β2-β3; assay: binding FACS, HEK Flp-In
[11] = molecular target: T6, huNav1.7α+β1 (human, UniProt Q15858 1-1988; Q07699 19-218); assay: binding FACS, HEK293 cells
T6 construct: also called huNav1.7-beta1; HEKa/β1
Protocol: (§1) Binding of the ISVDs to cell-expressed Nav1.7α was detected via murine anti-Flag (Sigma, catalog #F1804). Briefly, cells were resuspended in FACS buffer (PBS, 10% FBS, NaN₃) and transferred to a 96-well V-bottom plate at 1×10^5 cells/well. Purified FLAG3-tagged ISVD was diluted in FACS buffer and added to the cells for 30 minutes at 4° C. […] Prior to the read-out, the samples were resuspended in 1 μg/mL propidium iodide (Sigma, catalog #P4170) to exclude dead cells. Between each step, the cells were centrifuged for 5 minutes at 200 grams and washed with 100 μL/well FACS buffer.
(§2) Crude periplasmic extracts containing ISVDs from phage display selections (as described above) were screened in FACS for binding to huNav1.7α but not to huNav1.5a. […] As used in Table 8, the drawings, and throughout the description, Navβ1, Navβ2, and Navβ3 are human homologs unless specifically identified otherwise.

[12] = molecular target: T7, huNav157chimera14+β1-β2-β3 (human, UniProt Q07699 19-218; O60939 30-215; Q9NY72 23-215); assay: binding FACS with purified FLAG3-HIS6 tagged ISVDs
T7 construct: HEK FlpIn line; also called huNav157 chimera 14-beta1-beta2-beta3; Nav157ch14-β1-β2-β3
Protocol: as §1, §2

[13] = molecular target: T8, rhNav1.7α+β1-β2-β3 (rhesus monkey α subunit with human β …); assay: binding FACS, CHO FlpIn cells
T8 construct: P2A cleaves it into α, β1, β2, β3; also called rhNav1.7-beta1-beta2-beta3
Protocol: as §1, §2

[14] = molecular target: T9, huNav1.7α+β1-β2-β3 (human, UniProt Q15858 1-1988; Q07699 19-218; O60939 30-215; Q9NY72 23-215); assay: binding FACS, CHO FlpIn cells
T9 construct: 5N11S variant; also called huNav1.7-beta1-beta2-beta3; huNav1.7α+Navβ1-Navβ2-Navβ3
Protocol: as §1, §2

[15] = molecular target: T10, huNav1.5α+β1-β2-β3 (human, UniProt Q14524 1-2016; A5A6L6 19-218; O60939 30-215; Q2KI11 23-215); assay: binding FACS, HEK FlpIn cells
T10 construct: in the cell P2A cleaves it into α, β1, β2, β3; also called huNav1.5-beta1-beta2-beta3
Protocol: as §1, §2

[16] = molecular target: T11, huNav1.8α (human, UniProt Q9Y5Y9 1-1956); assay: binding FACS on stable huNav1.x paralog HEK293T cell lines
T11 construct: also called huNav1.8 (alpha subunit)

[17] = molecular target: T12, huNav1.5α (human, UniProt Q14524 1-2016); assay: as above
T12 construct: also called huNav1.5 (alpha subunit)

[18] = molecular target: huNav1.1α (human, UniProt P35498 1-2009); assay: as above
[19] = molecular target: T13, huNav1.6α (human, UniProt Q9UQD0 1-1980); assay: as above
T13 construct: also called huNav1.6 (alpha subunit)

[20] = molecular target: T14, huNav1.4α (human, UniProt P35499 1-1836); assay: as above
T14 construct: also called huNav1.4 (alpha subunit)

[21] = molecular target: T15, huNav1.2α (human, UniProt Q99250 1-2005); assay: as above
T15 construct: also called huNav1.2 (alpha subunit)

[22] = molecular target: T16, huNav1.3α (human, UniProt Q9NY46 1-2000); assay: as above
T16 construct: also called huNav1.3 (alpha subunit)

[23] = molecular target: T11, huNav1.8α; assay: binding FACS on stable cell lines
[24] = molecular target: rhNav1.7α (rhesus monkey, UniProt Q15858 1-1988 (human entry)); assay: cell-based or functional assay

T11 sequence (Q9Y5Y9 whole entry): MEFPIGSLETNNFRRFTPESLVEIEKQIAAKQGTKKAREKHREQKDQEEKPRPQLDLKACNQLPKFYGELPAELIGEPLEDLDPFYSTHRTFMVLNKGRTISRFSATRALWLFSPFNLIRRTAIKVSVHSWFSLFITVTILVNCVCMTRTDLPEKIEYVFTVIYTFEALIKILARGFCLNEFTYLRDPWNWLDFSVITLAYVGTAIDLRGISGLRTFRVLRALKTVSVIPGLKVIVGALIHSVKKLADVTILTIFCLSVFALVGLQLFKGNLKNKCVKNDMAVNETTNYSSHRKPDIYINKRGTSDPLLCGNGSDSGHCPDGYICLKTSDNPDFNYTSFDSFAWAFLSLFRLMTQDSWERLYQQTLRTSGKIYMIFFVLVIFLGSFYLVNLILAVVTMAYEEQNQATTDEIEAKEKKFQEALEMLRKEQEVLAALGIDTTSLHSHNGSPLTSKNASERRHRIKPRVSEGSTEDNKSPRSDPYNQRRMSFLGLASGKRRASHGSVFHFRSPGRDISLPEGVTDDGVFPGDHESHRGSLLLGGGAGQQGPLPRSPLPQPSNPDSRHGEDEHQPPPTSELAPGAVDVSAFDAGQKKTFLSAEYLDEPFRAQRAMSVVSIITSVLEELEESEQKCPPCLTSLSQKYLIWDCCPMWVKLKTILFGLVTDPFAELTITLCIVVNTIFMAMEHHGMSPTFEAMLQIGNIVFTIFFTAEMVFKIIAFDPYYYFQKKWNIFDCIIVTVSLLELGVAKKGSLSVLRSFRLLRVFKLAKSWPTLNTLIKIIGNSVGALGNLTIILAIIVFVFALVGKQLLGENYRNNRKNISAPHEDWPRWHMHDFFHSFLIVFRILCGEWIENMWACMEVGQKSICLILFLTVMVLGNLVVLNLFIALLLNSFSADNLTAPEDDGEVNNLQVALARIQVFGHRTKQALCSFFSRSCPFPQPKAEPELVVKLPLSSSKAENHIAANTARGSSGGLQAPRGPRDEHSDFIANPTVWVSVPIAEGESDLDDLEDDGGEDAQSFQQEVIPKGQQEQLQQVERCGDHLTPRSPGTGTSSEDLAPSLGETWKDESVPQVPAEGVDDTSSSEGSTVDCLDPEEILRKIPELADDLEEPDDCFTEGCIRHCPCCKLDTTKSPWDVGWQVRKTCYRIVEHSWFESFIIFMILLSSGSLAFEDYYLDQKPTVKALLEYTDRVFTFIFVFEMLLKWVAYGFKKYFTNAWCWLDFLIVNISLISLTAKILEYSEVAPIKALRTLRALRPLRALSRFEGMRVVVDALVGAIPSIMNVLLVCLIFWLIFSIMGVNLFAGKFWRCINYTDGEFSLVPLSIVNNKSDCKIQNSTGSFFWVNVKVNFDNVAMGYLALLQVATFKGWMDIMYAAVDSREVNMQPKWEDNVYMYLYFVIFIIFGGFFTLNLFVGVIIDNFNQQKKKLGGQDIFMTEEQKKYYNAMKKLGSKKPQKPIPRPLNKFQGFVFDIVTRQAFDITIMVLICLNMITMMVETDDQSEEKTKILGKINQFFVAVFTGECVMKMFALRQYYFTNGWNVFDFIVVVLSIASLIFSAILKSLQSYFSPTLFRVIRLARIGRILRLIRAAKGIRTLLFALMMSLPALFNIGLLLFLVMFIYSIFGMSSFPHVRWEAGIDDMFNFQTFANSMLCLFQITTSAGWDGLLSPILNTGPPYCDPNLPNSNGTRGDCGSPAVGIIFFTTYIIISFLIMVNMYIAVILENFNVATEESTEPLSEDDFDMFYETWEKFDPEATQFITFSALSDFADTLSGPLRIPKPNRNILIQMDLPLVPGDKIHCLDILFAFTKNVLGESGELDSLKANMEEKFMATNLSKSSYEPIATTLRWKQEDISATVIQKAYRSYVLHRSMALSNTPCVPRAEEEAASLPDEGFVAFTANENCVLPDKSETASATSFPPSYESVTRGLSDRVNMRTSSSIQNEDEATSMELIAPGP
T14 sequence (P35499 whole entry): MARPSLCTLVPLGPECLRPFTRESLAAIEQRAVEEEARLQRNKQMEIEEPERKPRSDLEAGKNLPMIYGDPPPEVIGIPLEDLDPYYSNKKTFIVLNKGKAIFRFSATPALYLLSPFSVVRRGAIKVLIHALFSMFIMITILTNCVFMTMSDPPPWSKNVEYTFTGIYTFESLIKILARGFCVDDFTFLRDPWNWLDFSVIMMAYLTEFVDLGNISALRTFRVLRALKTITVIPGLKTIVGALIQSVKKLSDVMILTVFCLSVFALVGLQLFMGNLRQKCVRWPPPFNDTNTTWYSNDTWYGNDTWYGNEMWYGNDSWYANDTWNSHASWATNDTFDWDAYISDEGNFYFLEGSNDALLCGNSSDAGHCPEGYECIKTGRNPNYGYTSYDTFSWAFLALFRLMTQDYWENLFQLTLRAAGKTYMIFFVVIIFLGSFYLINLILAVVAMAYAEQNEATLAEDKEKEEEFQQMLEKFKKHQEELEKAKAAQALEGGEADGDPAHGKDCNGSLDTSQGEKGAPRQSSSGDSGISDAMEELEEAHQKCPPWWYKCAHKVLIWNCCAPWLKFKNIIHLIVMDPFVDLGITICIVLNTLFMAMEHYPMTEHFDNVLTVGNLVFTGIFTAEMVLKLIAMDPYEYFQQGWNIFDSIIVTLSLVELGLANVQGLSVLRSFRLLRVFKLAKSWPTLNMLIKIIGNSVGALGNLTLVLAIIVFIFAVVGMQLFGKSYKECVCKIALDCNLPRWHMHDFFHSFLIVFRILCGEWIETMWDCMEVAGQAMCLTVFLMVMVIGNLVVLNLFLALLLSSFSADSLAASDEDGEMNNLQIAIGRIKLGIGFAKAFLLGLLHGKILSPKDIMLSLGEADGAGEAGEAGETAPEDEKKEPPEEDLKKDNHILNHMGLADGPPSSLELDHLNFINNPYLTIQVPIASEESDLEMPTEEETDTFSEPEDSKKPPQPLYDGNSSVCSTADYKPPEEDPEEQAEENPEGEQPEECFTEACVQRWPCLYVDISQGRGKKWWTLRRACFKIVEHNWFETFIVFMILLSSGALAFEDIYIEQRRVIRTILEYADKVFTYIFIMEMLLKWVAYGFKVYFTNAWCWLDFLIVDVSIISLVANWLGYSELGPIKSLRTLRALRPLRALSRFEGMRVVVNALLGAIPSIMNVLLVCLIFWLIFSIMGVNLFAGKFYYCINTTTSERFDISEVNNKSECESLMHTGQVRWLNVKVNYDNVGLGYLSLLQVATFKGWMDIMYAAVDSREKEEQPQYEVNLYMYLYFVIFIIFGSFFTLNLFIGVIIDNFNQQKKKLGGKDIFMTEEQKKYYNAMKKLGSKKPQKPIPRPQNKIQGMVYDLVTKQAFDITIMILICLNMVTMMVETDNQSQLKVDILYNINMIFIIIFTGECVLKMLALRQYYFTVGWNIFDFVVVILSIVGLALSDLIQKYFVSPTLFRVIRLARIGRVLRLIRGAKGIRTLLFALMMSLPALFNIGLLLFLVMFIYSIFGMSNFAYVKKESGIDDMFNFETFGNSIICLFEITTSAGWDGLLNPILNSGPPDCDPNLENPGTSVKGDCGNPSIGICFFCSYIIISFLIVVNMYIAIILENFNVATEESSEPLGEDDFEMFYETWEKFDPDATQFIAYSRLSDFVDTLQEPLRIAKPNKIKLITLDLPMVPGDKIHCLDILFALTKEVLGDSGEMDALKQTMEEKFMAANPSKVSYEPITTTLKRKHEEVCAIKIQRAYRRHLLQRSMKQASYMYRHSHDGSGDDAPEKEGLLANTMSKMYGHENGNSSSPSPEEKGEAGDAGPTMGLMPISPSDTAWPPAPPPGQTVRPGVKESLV

Row | Binder | MFI [1] | MFI [2] | MFI [3] | MFI [4] | MFI [5] | MFI [6] | MFI [7] | MFI [8] | MFI [9] | MFI [10] | binding result [12] | binding result [15] | also measured
1 | B1 | 35600 MFI | 483 MFI | 6280 MFI | 645 MFI | 93300 MFI | 90400 MFI | 930 MFI | 128000 MFI | 45100 MFI | 976 MFI |  |  | 
2 | B2 |  |  |  |  |  |  |  |  |  |  | binds | no binding | EC50 [11]: 4.1 nM; EC50 [13]: 27 nM; EC50 [14]: 4.1 nM; binding result [16]: no binding; binding result [17]: no binding; binding result [18]: no binding; binding result [19]: no binding; binding result [20]: no binding; binding result [21]: no binding; binding result [22]: no binding
3 | B3 | 106000 MFI | 891 MFI | 22500 MFI | 845 MFI | 95400 MFI | 108000 MFI | 964 MFI | 136000 MFI | 78400 MFI | 1200 MFI |  |  | 
4 | B4 | 22400 MFI | 521 MFI | 21500 MFI | 852 MFI | 33700 MFI | 96900 MFI | 975 MFI | 87200 MFI | 47300 MFI | 1110 MFI |  |  | 
5 | B5 |  |  |  |  |  |  |  |  |  |  | binds | no binding | binding result [23]: no binding; 2-pulse IC50 [M], P1 [24]: 7e-06 M; 2-pulse IC50 [M], P2 [24]: 3e-06 M
